{"source": "paper PMC11094025", "key": {"[1]": {"molecular_target": "VAPB (Vesicle-Associated-membrane Protein-associated protein B), endogenous (UniProt O95292)", "test": "peptide pull-down from total HeLa cell lysate, Western blot quantification", "conditions": "parent: est. 1.0; read off a plot"}, "[2]": {"molecular_target": "GST-VAPB-MSP (wild-type MSP-domain of VAPB fused to a GST-tag) (UniProt O95292)", "test": "peptide pull-down of purified protein, Coomassie gel quantification", "conditions": "parent: est. 1.0; read off a plot"}}, "data": [{"substance": "ELYS FFAT-2 peptide, non-phosphorylated S1314A; S1326A", "values": [{"measurement": "ratio to parent", "setting": "[1]", "result": 0.5}, {"measurement": "ratio to parent", "setting": "[2]", "result": 1.1}]}]}
